B1: POU domain, class 2, transcription factor 2, residues 200 to 269; numbered along this chain, P09086 (parent)
chain: LEELEQFARTFKQRRIKLGFTQGDVGLAMGKLYGNDFSQTTISRFEALNLSFKNMCKLKPLLEKWLNDAE

Variants of: B1
Experiment: abundance fitness (aPCA) (normalised: wild type 0, dead -1); higher = more abundant; growth selection in yeast, the domain comes from the species named
Conditions: Homo sapiens

Abundance fitness: each site, then its substitutions
A28: Q 0.061 | D 0.024 | S -0.079 | Y -0.101 | T 0.031 | F -0.032 | R -0.027 | I -0.167 | P -0.616 | N -0.095 | K -0.021 | H -0.064 | E 0.06 | M -0.047 | V -0.01 | C -0.108 | G -0.098
G23: F -0.01 | L -0.021 | E -0.04 | H -0.056 | V -0.029 | K 0.029 | P -0.136 | W -0.076 | A 0.04 | N -0.089 | T -0.102 | I -0.004 | Q -0.07 | M -0.01 | Y -0.218 | R -0.004 | D -0.055
F37: D -0.4 | C -0.06 | L -0.052 | H -0.093 | E -0.255 | M -0.024 | A -0.152 | K -0.434 | I 0.088 | G -0.28
L18: P -1.05 | I -0.099 | F -0.035 | Q -0.053 | Y -0.16 | W -0.216 | R -0.233 | E -0.253 | G -0.159 | N -0.044 | K -0.177 | H -0.049 | V -0.234 | M 0.014 | T -0.227 | S -0.193
G34: I -0.248 | N -0.068 | Q 0.087 | F -0.177 | M -0.208 | W -0.207 | Y -0.06 | E 0.052 | V -0.168 | C -0.143 | H -0.018 | L -0.208 | P -0.081 | R -0.132 | K -0.111 | D -0.065 | T -0.105 | A -0.071 | S -0.062
L27: T -0.092 | C -0.057 | E -0.059 | D -0.012 | R 0.006 | M -0.033 | S -0.073 | W -0.105 | P -0.39 | I -0.069 | H -0.043 | Y 0.026 | G -0.049 | N -0.019 | A 0.041 | V 0.015
M29: E -0.976 | I -0.211 | C -0.076 | H -0.681 | P -0.664 | V 0.003 | L 0.072 | A -0.131 | F -0.146 | Y -0.611 | D -0.314 | S -0.552 | T -0.075 | N -0.616 | R -0.655 | W -0.557 | Q -0.463 | K -0.95
Y33: A -0.057 | L -0.024 | W -0.105 | T -0.016 | C -0.043 | F -0.062 | P -0.068 | K -0.062 | D -0.036 | R -0.17 | I -0.076 | E -0.074 | N -0.156 | S -0.041 | H -0.01 | Q -0.07 | V -0.06 | M -0.055
G19: T -0.521 | Y -0.908 | F -0.461 | D -0.143 | V -0.986 | E -0.301 | Q -0.498 | I -0.793 | L -0.321 | M -0.268 | H -0.086 | K -0.092 | C -0.349 | P -0.98 | N -0.022 | R -0.128 | S -0.118 | W -0.926
V25: S -0.453 | T -0.302 | H -0.996 | G -1.05 | F -0.548 | M -0.291 | C -0.229 | W -0.692 | Q -1.03 | I -0.098 | R -0.696 | E -0.926 | P -0.915 | K -0.894 | A -0.01
D36: H -0.003 | G -0.06 | P -0.122 | Y 0.013 | R -0.034 | W -0.052 | C -0.12 | A -0.05 | V -0.048 | S -0.05 | Q -0.047 | M -0.162 | E -0.026 | L -0.049 | N -0.063 | I -0.057 | F 0.017
T21: M -0.26 | V -0.573 | L -0.323 | C -0.212 | W -0.633 | K -0.173 | H -0.286 | F -0.625 | A -0.138 | S -0.044 | Q -0.205 | E -0.165 | R -0.14 | G -0.135 | Y -0.77 | I -0.746
D24: F -0.158 | V -0.169 | S -0.091 | K -0.202 | E -0.093 | M -0.125 | R -0.177 | W -0.285 | G -0.113 | Y -0.095 | Q 0.003 | C -0.172 | N -0.091 | H -0.065 | T -0.199 | A -0.07 | P -0.918 | I -0.792 | L -0.215
N35: R -0.022 | T -0.203 | A -0.016 | S -0.078 | H -0.114 | V -0.091 | Q -0.104 | P -0.017 | F -0.029 | E 0.106 | W -0.026 | M -0.049 | I -0.15 | Y 0 | D -0.095
Q22: K -0.042 | C -0.004 | H -0.062 | R -0.11 | N -0.351 | W -0.006 | L -0.025 | V -0.059 | T -0.045 | I -0.12 | P -0.071 | Y -0.423 | F -0.097 | A 0.004 | G -0.187 | M -0.054 | S -0.093
K31: S -0.033 | N -0.166 | C -0.054 | E -0.064 | T -0.036 | L -0.092 | I -0.136 | D -0.114 | A -0.019 | Q -0.04 | M -0.168 | G -0.047 | V -0.115 | R 0.002 | P -0.142 | Y -0.178 | F -0.336 | H -0.119 | W -0.246
G30: K -0.071 | V -0.052 | W -0.013 | I -0.083 | R -0.063 | D -0.068 | T 0.009 | C -0.068 | A -0.041 | S 0.061 | P -0.223 | Y -0.051 | H -0.013 | L -0.044 | F -0.001 | Q 0.107 | N 0.019
F20: H -0.035 | Q -0.081 | S -0.207 | N -0.427 | I -0.101 | D -0.899 | R -0.083 | W -0.065 | Y -0.111 | L -0.004 | A -0.006 | V -0.13 | P -1.01 | K 0.005 | T -0.317
G26: H -0.109 | C -0.105 | M -0.131 | K -0.113 | P -0.299 | L -0.064 | A -0.067 | W -0.023 | D 0.047 | R -0.165 | E -0.023 | I -0.157 | V -0.022 | T -0.014 | F -0.18 | Y -0.085 | Q 0.042
L32: P -0.209 | K 0.01 | Y 0 | V -0.098 | F -0.093 | S -0.01 | Q 0.04 | G -0.08 | R -0.022 | M -0.021 | D 0.037 | A -0.006 | W -0.201 | N -0.163 | C -0.083 | T -0.071 | H -0.126 | I -0.049

— the Human Domainome abundance scans (Beltran et al. 2025)
